In data set [1] the target is T1, acyl CoA:cholesterol acyl transferase (Mus musculus, UniProt Q61263).
T1 construct: host or cells: J774 mouse macrophages, cholesterol-loaded
T1 sequence (Q61263 1-540): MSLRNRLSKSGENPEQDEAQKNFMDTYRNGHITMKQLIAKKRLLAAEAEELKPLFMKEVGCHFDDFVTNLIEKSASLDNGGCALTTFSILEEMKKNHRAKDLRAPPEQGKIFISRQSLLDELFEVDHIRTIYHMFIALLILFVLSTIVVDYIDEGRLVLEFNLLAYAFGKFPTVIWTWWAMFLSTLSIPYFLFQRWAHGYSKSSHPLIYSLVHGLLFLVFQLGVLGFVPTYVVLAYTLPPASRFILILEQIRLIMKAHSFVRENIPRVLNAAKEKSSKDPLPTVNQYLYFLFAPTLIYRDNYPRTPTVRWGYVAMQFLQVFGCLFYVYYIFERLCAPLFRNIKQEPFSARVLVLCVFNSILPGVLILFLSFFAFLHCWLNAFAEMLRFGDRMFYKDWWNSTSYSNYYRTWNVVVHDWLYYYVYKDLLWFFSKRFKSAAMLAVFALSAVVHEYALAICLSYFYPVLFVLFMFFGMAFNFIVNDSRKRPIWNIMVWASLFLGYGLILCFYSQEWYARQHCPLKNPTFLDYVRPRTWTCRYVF
Kind of data set: Incorporation of [14C]oleate into cholesteryl ester in cholesterol-laden macrophages (ACAT activity). Type of data set: cell-based, murine. The settings on record: for relative acyl CoA:cholesterol acyl transferase activity: liposomes containing 0.5 μM synthetic peptide, 6 hour incubation, cholesterol-laden murine cells.

Another data set deals with THP-1 cells. Kind of data set: Cholesterol efflux from cholesterol-laden human THP-1 cells. The conditions noted are these: liposomal formulations; cholesterol-laden THP-1 cells differentiated with phorbol myristate acetate. Type of data set: cell-based. Here is the method:
These monocytes were differentiated into macrophages with phorbol myristate acetate (100 nM). In these experiments, cholesterol-laden human THP-1 cells were exposed to liposomal formulations comprising a peptide corresponding to amino acids 1-20 of murine SAA2.1 (SEQ ID NO:1), a peptide corresponding to amino acids 74-103 of murine SAA2.1 (SEQ ID NO:4), a peptide corresponding to amino acids 1-20 of murine SAA1.1 plus an arginine at the N-terminus (SEQ ID NO:7), or a peptide corresponding to amino acids 1-20 of murine SAA2.1 (SEQ ID NO:1) and a peptide corresponding to amino acids 74-103 (SEQ ID NO:4) of murine SAA2.1. Results from these experiments are depicted in FIG. 4. […] Studies were carried out to determine whether murine SAA2.1 increases cholesterol export from a human derived monocytic cell line, THP-1 (obtained from American Type Culture Collection, Manassas, Va.; ATCC#TIB-202). Human monocytes were cultured in T-75 flasks with 30 ml RPMI 1640 medium containing 2 mM L-glutamine, 4.5 g/L glucose, 10 mM HEPES, 1.0 mM […] and supplemented with 0.05 mM 2-mercaptoethanol and 10% fetal bovine serum. Subsequently, five million cells were placed in each well of a 6-well tissue culture plate. The monocytes were differentiated into macrophages by treatment with phorbol myristate acetate (100 nM). THP-1 macrophages were enriched with cholesterol by incubating with red blood cells membrane fragments (175 μg as cholesterol) that had been previously labelled with 0.5 μCi/mL[^3H]-cholesterol at 37° C. for 6 hours in 0.2% bovine serum albumin, followed by an overnight equilibration period. Cells were washed four times with PBS/BSA prior to efflux studies. Cells were then incubated at 37° C. with 2 mL RPMI-BSA containing 5% LPDS and 50 μg/mL of either native HDL, SAA-HDL, liposomes containing 2 μmoles of apoA-I, SAA1.1 or 2.1, or liposomes containing 0.5 μmoles synthetic peptides corresponding to amino acid residues 1-20 (SEQ ID NO:1), 21-50 (SEQ ID NO:2), 51-80 (SEQ ID NO:3) or 74-103 (SEQ ID NO:4) of murine SAA2.1. The efflux media were collected at 0, 1, 2, 4, 8, 16 and 24 hours, centrifuged to remove cell debris, and then used to measure the exported counts. […] A portion of the cells was lysed in 0.1N NaOH to estimate both the remaining radioactivity and the cellular protein content. Cellular lipids were extracted from the remaining portion of the cells and analyzed by thin-layer chromatography as described by Mendez et al. (J. Clin. Invest. 1994 94:1698-1705) and Oram et al. (Arterioscler. Thromb. 1991 11:403-414). The radioactivity in appropriate spots was measured to determine total cellular cholesterol counts. Efflux of radioactive label to the medium was calculated as the percentage of total counts (cell+medium counts) in each well.

As for “DTIADQEANRHGRSGKDPNYYRPPGLPDKY [SEQ ID NO:4, synthetic peptide, residues 74-103 of murine SAA2.1]”, the “relative acyl CoA:cholesterol acyl transferase activity” value in data set [1] is listed as “no significant effect”. Besides, the “cholesterol efflux, time course (FIG. 4)” value in the data set with THP-1 cells is on record as “demonstrated to increase cholesterol efflux”. For “GFFSFVHEAFQGAGDMWRAY [SEQ ID NO:1, synthetic peptide, residues 1-20 of murine SAA2.1]” the same measures were “two-fold decrease” and “demonstrated to increase cholesterol efflux”.

B1: GFFSFVHEAFQGAGDMWRAYTDMKEANWKNSDKYFHARGNYDAAQRGPGGVWAAEKISD GREAFQEFFGRGHEDTIADQEANRHGRSGKDPNYYRPPGLPDKY (protein, listed as Mus musculis)
chain: GFFSFVHEAFQGAGDMWRAYTDMKEANWKNSDKYFHARGNYDAAQRGPGGVWAAEKISDGREAFQEFFGRGHEDTIADQEANRHGRSGKDPNYYRPPGLPDKY
notes: full length murine serum amyloid A isoform 2.1 purified from acute phase plasma
As to B1, the “acyl CoA:cholesterol acyl transferase activity in intact cholesterol-laden macrophages” value in data set [1] (lipoproteins or protein liposomes, tissue culture) is “marked reduction of acyl CoA:cholesterol acyl transferase activity”.

The record behind these values is US8703698B2, “Compositions and methods for treating atherosclerosis” (The University of Chicago, priority 2003, dated 2014).
